Measurements reported in the supplement of paper PMC9170038.

System: MS2 coat protein
Assay: apparent KD of MS2 coat protein; designed switch direction (-1 OFF switch, 1 ON switch): 1; higher = weaker reporter binding
Outline: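 RNA switches sharing common flanks were transcribed by stalled E. coli RNA polymerase on Illumina chips. A doubling series of SNAP-549-labelled MS2 coat protein, from 0.7 or 1.5 nM to 3 µM, was applied in Tris-HCl pH 7.5 buffer with KCl, MgCl2, BSA, DTT, tRNA and Tween-20. Each step lasted 0.8–1.5 h at the bottom of the series and 10–20 min at the top. Normalised cluster fluorescence was curve-fitted, giving apparent KD as the per-design median over clusters.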

[1] = input ligand: microRNA oligo, concentration not stated
[2] = Eterna round: R95, input ligand: FMN 200 uM
[3] = Eterna round: R95, input ligand: microRNA oligo, concentration not stated
[4] = Eterna round: R95, input ligand: none

Row | Sequence | apparent KD of MS2 coat protein (input ligand: FMN 200 uM) [nM] | apparent KD of MS2 coat protein [1] [nM] | apparent KD of MS2 coat protein (input ligand: none) [nM] | apparent KD of MS2 coat protein [2] [nM] | apparent KD of MS2 coat protein [3] [nM] | apparent KD of MS2 coat protein [4] [nM]
1 | GGUGCGAAUAAAGCCUACAUGAGGAUCACCCAUGUAUGUAGGCAGGAUAUCGUUUGCAAAGCAAACGAGAAGGGCUGACGCACC [Mat - Same State NG 3 - JL Mod - D49] (Eterna round: R96, puzzle: Same State NG 3) | 29.3 | 45.7 | 62.4 |  |  | 
2 | GUCCGUAUCACAGGAUAUCCUAGUCAUGAUCUAGGAGAAGGGUGGCCACAUGAGGAUCACCCAUGUGAAGUGCCAGAGGCACGA [MOD2 Xexeraed] (Eterna round: R96, puzzle: Same State NG 1) | 687 | 64.8 | 149 |  |  | 
3 | UUAAGCCACGGGCAGGAUAUGUAUUAAAGUACAUGAGGAUCACCCAUGUGCAGGUGUAACACCUGACAGAAGGGCCAAUCGCGGC [Soondi - 3] (puzzle: Same State 2) |  |  |  | 16 | 68 | 72.7
4 | AGUCCAGCAUGAGCUGGACAAAAGCAUGUACAUGAGGAUCACCCAUGUUCAUGUACAAGCUUUUUGCUCGUCUUAAA [Mat - hsa-mir-208a - Mod of JL - 45] (puzzle: Sensor for hsa-mir-208a) |  |  |  | 807 | 17.5 | 562
5 | GAGGGACAGACCAACAUGAGGAUCACCCAUGUCCUCGCAGGUCAGGAUAUCCGGCCAACAGGCAAGGAGAAGGGACGGUGAACC (Eterna round: R96, puzzle: Same State NG 3) | 418 | 344 | 479 |  |  | 
6 | UUAAUAAUGUUAGGAUAUACAUGAGGAAUCCUCGUAGAAGGAACAUGACAUGAGGAUCACCCAUGUAGCGCUCCGUAGAGCGCA [Mat - Same State NG 1 - JL mod - D45] (Eterna round: R96, puzzle: Same State NG 1) | 1600 | 53.2 | 164 |  |  | 
7 | AAGUUAAGCUUUUUGUUCUGCCUAUUCUGACAUGAGGAUCACCCAUGUGGUCGAACGACUACGUGUGUAGUUGAGAU [JR_SHM208A_Sub030] (puzzle: Sensor for hsa-mir-208a) |  |  |  | 174 | 252 | 278
8 | UUGCGGGCUUGAGGAUAUUGAGUACAUAUGUUUAACAUGAGGAUCACCCAUGUGGGUUGCGGUAUCGAGAAGGUAACUUCCUCC [salish99_SSNG2_r04_809] (Eterna round: R96, puzzle: Same State NG 2) | 169 | 124 | 163 |  |  | 
9 | UGACACACGGCAGGAUAUCGAUUCCAAAGGAAUCGAGAAGGGCCUCAUGUCGUGGAAACGUGACAUGAGGAUCACCCAUGUUGC [Omei SS(NG)1 Cv15] (Eterna round: R96, puzzle: Same State NG 1) | 222 | 15.8 | 96 |  |  | 
10 | GGAGCCGGCCUAGGAUAUUUCAUAAACAAACAUGAGGAUCACCCAUGUAGGCCAGAAGGCCUUGGGAAGAAGGAGGUCGGCUCC [Loop Effect - C27] (Eterna round: R96, puzzle: Same State NG 2) | 22.1 | 32.2 | 45.2 |  |  | 
11 | AAUUAAUUAAUUAAUAUACAUGAGGAUCACCCAUGUAAGAUCAAGGAUAUCAGCUCGAUUAGAGCUGAGAAGGUGAUCACAUGU [SSNG3/16-A2] (Eterna round: R96, puzzle: Same State NG 3) |  | 207 |  |  |  | 
12 | ACAUGAGAUCUAGGAUAUAUUGUACCUACAUGUGACAUGAGGAUCACCCAUGUGGUAAGUAUGACAUAGAAGGAGAAGAUAUGU [Equivalance 95 - Jieux - Same State NG 2] (Eterna round: R96, puzzle: Same State NG 2) |  | 53.9 |  |  |  | 
13 | CAGUGCUGUCGAGAGGAUAUGCGGUGAUGGACAUGAGGAUCACCCAUGUUAGCGACAGCGUUACGGCAGAAGGCUCUACCCACUG [Soteed Omei mod 47] (puzzle: Same State 2) |  |  |  | 62.5 | 28.7 | 42.7
14 | AGAUCAUGACGAGGAUAUGGUACAUGAGGAUCACCCAUGUAUGUACCAUAACGCGUACGACGAAACCAGAAGGCGUCGUGAUCA [Mat - Same State NG 2 - JL mod - D41] (Eterna round: R96, puzzle: Same State NG 2) | 9.06 | 12.2 | 20.7 |  |  | 
15 | CGGGUACAUGAGGAUCACCCAUGUAGAAGAGAUGCAGGAUAUGUGGGAAAAGGGAAUGUAACAGAAGGGCAAGGAG [JR_SS!_Sub017] (puzzle: Same State 1) |  |  |  | 47.4 | 56.1 | 94.1
16 | GUCAGCGAUUGAGGAUAUCACGUCGAUUAGACGUGAGAAGGCGAUCAUAACAUGAGGAUCACCCAUGUAUUACAUGAAGCUGAC [SSNG1/5-A2] (Eterna round: R96, puzzle: Same State NG 1) | 19.6 | 17.5 | 27.1 |  |  | 

Row | Sequence | apparent KD of MS2 coat protein (input ligand: FMN 200 uM) [nM] | apparent KD of MS2 coat protein [1] [nM] | apparent KD of MS2 coat protein (input ligand: none) [nM] | apparent KD of MS2 coat protein [2] [nM] | apparent KD of MS2 coat protein [3] [nM] | apparent KD of MS2 coat protein [4] [nM]
17 | GAUUAACAUGAGGAUCACCCAUGUCGUAUUAUGGGAGGAUAUACGUGGACCGUAGUCCGCGUAGAAGGCCUAAUUG [JL-ss1-3.21 janelle mod] (puzzle: Same State 1) |  |  |  |  | 76.4 | 
18 | UGGUACAUGGGAGGAUAUCAUGUAGAAACAUGAGGAUCACCCAUGUUGAUGGAGACAUCGGAGAUUGAGAAGGCCCAUGUACCU [JL SSNG1 3.57] (Eterna round: R96, puzzle: Same State NG 2) | 15.6 | 33.6 | 46 |  |  | 
19 | AUUAAUAAUCUAGGAUAUCACGUCGUUUAGACGUGAGAAGGAGAUCAUAACAUGAGGAUCACCCAUGUAUUACAUGAAGUUAAU [SSNG1/7-B3] (Eterna round: R96, puzzle: Same State NG 1) | 22.2 | 27.8 | 37.5 |  |  | 
20 | GCUCUACAUGAGGAUCACCCAUGUUCGGACGCACGAGGAUAUGCAUGGGCGAAAGCUGGUGCAGAAGGCGUGGGAC [inDCorner] (puzzle: Same State 1) |  |  |  |  | 150 | 
21 | AGUCCAGCCUGAGCUGGACAAAUGCAAGUACAUGAGGAUCACCCAUGUUCAUGUACAAGCUUUUUGCUCGUCUUAAA [JL zipper 59] (Eterna round: R96, puzzle: Sensor for hsa-mir-208a) | 853 | 21.3 | 931 |  |  | 
22 | CUCAACAACACAGGAUAUCCAGGGAAAAGACCUGGAGAAGGGUGACCAACAUGAGGAUCACCCAUGUGACAGCCAGGCUGUCUG [Esisiszaon] (Eterna round: R96, puzzle: Same State NG 1) | 164 | 84.4 | 47.7 |  |  | 
23 | GGAAUGUGAUGUUACAUGAGGAUCACCCAUGUAGUGACAACUAAGGAUAUCUGAAAGGAAGGAGAGGAGAAGGUAGGAUCACAA [AK SSNG3-V2-16] (Eterna round: R96, puzzle: Same State NG 3) | 15.2 | 24.1 | 40.8 |  |  | 
24 | AUAAAACAUGAGGAUCACCCAUGUCAACAAAGUCGAGGAUAUGGGCAAAUAAAAUAAUAACCAGAAGGCGAAUAAU [salish99_ss1_r3_018] (puzzle: Same State 1) |  |  |  | 63.9 | 232 | 546
25 | UUUAUAGGCGCAGGAUAUGGUGAGGAUCACCCACUAGAAGGGUGCACAUGAGAAUCGGACAUGAGGAUCACCCAUGUCCGGCGC (Eterna round: R96, puzzle: Same State NG 1) | 915 | 201 | 526 |  |  | 
26 | GGAGCCGGCCUAGGAUAUUUCAUAAAUAAACAUGAGGAUCACCCAUGUAGGCCAGAAGGCCUUGGGAAGAAGGAGGUCGGCUCC [Loop Effect - U27] (Eterna round: R96, puzzle: Same State NG 2) | 9.58 | 30.2 | 33.9 |  |  | 
27 | CGGCGCUGUCGAGAGGAUAUGCGGUGAUGGACAUGAGGAUCACCCAUGUUAGCGAUAGCAUUACGGUAGAAGGCUCUACAGCUGC [Soteed Omei mod 4] (puzzle: Same State 2) |  |  |  |  | 27.9 | 
28 | CUGAGCAGUCAAGGAUAUCACGUCGUUUAGACGUGAGAAGGUGACCAAUACAUGAGGAUCACCCAUGUAAUACAUGAAGCUCAG [SSNG1/12-A3] (Eterna round: R96, puzzle: Same State NG 1) | 16.2 | 17.8 | 37.2 |  |  | 
29 | GCGAAGAGGUAAGGAUAUGCAUGGCGGAGACAUGAGGAUCACCCAUGUUGGAGACGAAAUCUAGGGUAGAAGGUACCGGGAAGC [ssng2 v2 b] (Eterna round: R96, puzzle: Same State NG 2) | 75.4 | 70.2 | 110 |  |  | 
30 | GGCUAUCGCAUUCGAUAGCCUGAGCAUGUACAUGAGGAUCACCCAUGUCAUGUACAGGCUUUUUGCUCGUACUUAUA (puzzle: Sensor for hsa-mir-208a) |  |  |  | 71 | 13.6 | 93.4
31 | UUGAGAUGUACAGGAUAUGGUGAGGAUCACCCACUAGAAGGGUGCACAUGUGAAUCGGACAUGAGGAUCACCCAUGUUGGGCGU (Eterna round: R96, puzzle: Same State NG 1) | 108 | 224 | 209 |  |  | 
32 | GUGGAGGGUUGAGGAUAUUGGUUGCAUAUGUUUAACAUGAGGAUCACCCAUGUGGGUUGCGGUUUCGAGAAGGUAGGUUGCUGG [salish99_SSNG2_r04_043] (Eterna round: R96, puzzle: Same State NG 2) | 90.8 | 82.2 | 75.2 |  |  | 
